Literature values in patent US7531621B1, “PTH2 receptor selective compounds” (Societe de Conseils de Recherches et d'Applications …, priority 1999, dated 2009).

How the values were obtained:
[1] = target: PTH2 receptor (Homo sapiens, UniProt P49190); conditions: result in words, background
[2] = target: T1, PTH/PTHrP receptor (Homo sapiens, UniProt Q03431); conditions: result in words, background
T1 sequence (Q03431 27-593): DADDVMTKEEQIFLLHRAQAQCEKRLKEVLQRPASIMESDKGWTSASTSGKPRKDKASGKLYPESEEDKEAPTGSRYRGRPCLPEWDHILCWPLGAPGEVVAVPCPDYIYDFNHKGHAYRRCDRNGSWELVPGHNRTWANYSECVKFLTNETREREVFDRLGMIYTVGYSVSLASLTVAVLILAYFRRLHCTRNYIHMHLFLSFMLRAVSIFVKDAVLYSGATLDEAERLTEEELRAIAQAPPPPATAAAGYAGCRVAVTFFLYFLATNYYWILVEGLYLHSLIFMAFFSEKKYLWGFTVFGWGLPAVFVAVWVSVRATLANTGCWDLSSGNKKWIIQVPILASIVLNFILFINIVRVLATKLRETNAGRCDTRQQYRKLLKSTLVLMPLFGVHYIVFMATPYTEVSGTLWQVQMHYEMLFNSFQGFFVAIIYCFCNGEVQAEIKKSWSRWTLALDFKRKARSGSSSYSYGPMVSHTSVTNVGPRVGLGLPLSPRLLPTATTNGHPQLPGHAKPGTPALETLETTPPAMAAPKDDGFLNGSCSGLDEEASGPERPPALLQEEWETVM

Chain of PTH2 receptor (P49190 25-550): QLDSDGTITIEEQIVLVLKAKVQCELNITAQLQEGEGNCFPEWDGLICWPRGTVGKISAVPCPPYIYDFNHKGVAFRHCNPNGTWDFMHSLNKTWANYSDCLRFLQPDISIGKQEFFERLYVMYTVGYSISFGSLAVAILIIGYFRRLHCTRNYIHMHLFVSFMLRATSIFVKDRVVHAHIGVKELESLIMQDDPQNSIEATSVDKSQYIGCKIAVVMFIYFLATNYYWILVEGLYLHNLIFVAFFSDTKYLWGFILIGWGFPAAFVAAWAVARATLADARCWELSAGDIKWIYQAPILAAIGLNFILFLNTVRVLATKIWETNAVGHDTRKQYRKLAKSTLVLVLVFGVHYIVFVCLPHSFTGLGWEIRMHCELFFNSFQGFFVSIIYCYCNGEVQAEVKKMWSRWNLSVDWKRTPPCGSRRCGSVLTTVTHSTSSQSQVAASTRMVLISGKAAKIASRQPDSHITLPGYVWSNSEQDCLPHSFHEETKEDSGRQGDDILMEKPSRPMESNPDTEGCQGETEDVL

activation of the PTH2 receptor [1]	binding and activation of the PTH/PTHrP receptor [2]	Substance
acts as a PTH-2 receptor agonist	binds and activates both receptors	Ile^5-PTHrP-(1-34) NH2
selectively activated	binds and is activated by both	PTH-(1-34)
weakly activate		PTHrP (7-34)
